Results as given in patent publication US20160084821A1.

Target: BRCA1 protein (mouse) (mouse) (UniProt P48754)
Experiment: cell-based or functional assay

UniProt P48754, sequence (P48754 whole entry): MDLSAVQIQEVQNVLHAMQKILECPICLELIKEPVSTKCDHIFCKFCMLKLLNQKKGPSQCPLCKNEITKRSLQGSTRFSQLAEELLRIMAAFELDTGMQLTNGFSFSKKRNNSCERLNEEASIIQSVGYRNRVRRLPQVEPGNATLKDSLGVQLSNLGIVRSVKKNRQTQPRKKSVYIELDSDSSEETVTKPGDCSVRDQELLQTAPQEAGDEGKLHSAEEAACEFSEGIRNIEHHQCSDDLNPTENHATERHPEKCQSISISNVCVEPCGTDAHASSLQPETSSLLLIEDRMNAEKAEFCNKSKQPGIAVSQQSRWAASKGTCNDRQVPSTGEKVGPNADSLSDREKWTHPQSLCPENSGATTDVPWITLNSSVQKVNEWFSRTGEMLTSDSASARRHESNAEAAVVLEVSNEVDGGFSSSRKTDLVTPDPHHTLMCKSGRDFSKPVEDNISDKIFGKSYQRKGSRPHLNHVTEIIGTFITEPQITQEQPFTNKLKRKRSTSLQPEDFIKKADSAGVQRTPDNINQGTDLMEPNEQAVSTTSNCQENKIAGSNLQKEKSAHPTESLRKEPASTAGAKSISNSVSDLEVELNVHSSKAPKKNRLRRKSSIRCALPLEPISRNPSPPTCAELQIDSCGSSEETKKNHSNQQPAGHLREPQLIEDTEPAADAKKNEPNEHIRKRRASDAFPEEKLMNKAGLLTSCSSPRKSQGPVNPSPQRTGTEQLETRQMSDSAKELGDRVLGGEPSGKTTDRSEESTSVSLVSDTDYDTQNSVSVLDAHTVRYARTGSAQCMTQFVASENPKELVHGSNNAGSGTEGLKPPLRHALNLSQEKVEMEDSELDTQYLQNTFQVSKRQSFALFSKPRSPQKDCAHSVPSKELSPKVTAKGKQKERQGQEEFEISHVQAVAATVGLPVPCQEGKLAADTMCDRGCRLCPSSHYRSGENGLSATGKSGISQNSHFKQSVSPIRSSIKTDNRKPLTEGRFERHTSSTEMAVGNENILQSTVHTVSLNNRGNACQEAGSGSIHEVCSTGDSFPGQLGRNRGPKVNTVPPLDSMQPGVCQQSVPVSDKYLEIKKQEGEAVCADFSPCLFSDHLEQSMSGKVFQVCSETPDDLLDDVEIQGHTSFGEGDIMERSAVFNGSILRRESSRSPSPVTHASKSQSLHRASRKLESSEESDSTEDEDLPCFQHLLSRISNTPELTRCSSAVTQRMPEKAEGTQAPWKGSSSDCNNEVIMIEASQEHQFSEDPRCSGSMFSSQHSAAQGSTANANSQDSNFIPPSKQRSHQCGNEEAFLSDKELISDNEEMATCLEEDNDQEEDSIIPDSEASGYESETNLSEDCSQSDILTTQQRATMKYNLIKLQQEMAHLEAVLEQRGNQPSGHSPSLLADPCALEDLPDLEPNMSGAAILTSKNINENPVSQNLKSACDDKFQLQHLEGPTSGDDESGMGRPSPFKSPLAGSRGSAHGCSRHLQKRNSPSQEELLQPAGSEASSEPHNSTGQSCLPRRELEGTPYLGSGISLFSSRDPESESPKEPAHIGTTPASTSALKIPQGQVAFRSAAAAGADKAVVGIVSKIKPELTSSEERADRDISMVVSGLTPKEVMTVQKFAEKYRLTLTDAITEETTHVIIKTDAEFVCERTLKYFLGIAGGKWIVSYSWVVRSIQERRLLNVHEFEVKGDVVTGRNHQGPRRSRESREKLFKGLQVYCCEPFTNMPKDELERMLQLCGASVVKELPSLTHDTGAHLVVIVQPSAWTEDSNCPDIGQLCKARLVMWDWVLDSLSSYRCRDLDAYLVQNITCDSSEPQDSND

anti-FANCD2 foci co-localized with regions of intense anti-BRCA1 staining (20 pachytene nuclei): 65%
Substance: FANCD2 protein (mouse, on meiotic chromosomes of spermatocytes) (from UniProt Q80V62 1-1450)
